Data reported in PMC3026782, “The Cytoskeletal Protein Ndel1 Regulates Dynamin 2 GTPase Activity” (PLoS ONE, 2011).

Columns and labels:
[1] = biological target: T1, GST-fused Dyn2 (UniProt P50570 1-870); test: cell-based or functional assay
T1 sequence (looked up): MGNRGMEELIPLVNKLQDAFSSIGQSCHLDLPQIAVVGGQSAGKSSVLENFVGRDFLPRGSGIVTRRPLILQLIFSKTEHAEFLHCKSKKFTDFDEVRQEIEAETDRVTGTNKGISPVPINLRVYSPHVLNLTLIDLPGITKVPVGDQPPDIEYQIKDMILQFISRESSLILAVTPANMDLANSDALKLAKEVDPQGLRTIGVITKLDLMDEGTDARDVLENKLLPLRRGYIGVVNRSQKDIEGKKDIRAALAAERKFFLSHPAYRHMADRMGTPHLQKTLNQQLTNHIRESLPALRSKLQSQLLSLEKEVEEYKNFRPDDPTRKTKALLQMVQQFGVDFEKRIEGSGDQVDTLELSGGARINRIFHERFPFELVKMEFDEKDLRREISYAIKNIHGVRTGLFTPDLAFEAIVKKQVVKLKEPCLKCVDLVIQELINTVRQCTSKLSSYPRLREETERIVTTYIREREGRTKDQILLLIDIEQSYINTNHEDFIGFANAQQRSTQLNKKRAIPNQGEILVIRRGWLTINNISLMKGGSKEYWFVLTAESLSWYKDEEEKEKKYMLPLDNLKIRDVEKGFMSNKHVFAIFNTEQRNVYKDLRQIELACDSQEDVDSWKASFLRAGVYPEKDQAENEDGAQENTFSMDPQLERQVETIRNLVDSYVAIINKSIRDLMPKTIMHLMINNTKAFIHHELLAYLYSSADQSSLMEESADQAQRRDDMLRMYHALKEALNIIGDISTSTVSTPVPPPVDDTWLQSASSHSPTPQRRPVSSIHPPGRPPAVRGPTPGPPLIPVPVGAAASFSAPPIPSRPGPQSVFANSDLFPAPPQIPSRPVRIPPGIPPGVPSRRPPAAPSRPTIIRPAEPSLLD

[2] = biological target: T2, GST-Dyn2 F5 (GTPase+middle+PH+GED domains); test: cell-based or functional assay
T2 chain: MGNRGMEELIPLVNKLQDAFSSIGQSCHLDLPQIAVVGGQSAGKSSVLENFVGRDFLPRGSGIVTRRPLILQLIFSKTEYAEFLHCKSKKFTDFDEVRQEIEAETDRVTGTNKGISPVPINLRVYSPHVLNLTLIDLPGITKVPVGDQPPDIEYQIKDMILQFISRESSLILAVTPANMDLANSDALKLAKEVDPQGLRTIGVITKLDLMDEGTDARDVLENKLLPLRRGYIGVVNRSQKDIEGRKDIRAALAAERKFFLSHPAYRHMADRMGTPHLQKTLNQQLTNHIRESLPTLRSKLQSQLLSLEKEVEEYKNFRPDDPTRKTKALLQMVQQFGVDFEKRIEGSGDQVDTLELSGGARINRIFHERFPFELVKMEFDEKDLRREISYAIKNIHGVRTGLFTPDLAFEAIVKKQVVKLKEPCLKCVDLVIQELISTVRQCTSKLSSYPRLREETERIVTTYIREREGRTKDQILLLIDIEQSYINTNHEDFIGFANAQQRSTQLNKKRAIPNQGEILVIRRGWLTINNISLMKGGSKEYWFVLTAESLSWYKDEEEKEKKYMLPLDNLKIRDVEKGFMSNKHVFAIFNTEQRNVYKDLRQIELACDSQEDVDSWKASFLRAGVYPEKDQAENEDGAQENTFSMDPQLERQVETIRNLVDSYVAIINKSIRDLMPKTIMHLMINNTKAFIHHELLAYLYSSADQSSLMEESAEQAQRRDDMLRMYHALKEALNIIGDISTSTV

B1: His-tagged Ndel1 (natural protein, UniProt Q9GZM8 1-345, looked up)
chain: MDGEDIPDFSSLKEETAYWKELSLKYKQSFQEARDELVEFQEGSRELEAELEAQLVQAEQRNRDLQADNQRLKYEVEALKEKLEHQYAQSYKQVSVLEDDLSQTRAIKEQLHKYVRELEQANDDLERAKRATIVSLEDFEQRLNQAIERNAFLESELDEKESLLVSVQRLKDEARDLRQELAVRERQQEVTRKSAPSSPTLDCEKMDSAVQASLSLPATPVGKGTENTFPSPKAIPNGFGTSPLTPSARISALNIVGDLLRKVGALESKLAACRNFAKDQASRKSYISGNVNCGVLNGNGTKFSRSGHTSFFDKGAVNGFDPAPPPPGLGSSRPSSAPGMLPLSV
radioactive GTPase assay: hydrolysis of GTP into GDP by Dyn2 oligomers (low salt) with against without Ndel1, over 60 minutes [1]: ~2 fold | non-radioactive (ELIPA) GTPase assay of F5 with against without Ndel1 [2]: ~1.3 fold
